Source: patent publication CN113549147A
Substitutions are numbered along the chain they refer to.

B1: 单克隆抗体6C8 (antibody, V domains shown)
VH: EVQLQQSGPELVRPGASVRISCKASGYSFTGYYMHWVKQSHVKSLEWIGRINPHNGVPNYNQNFKDKATLTVDKSSTTAYMELHSLTSEDSAVYFCVSGSSDFDYWGRGATLTVS
VL: DIQMTQSPSSLSASLGERVTLTCRASQEIGAFLGWLQQKPDGIIKRLIYAASVLDSGVPKRFSGSRSGSDYSLTISSLESEDFADYYCLQYVSFPRTFGGGTKLEIK
B2: 单克隆抗体2B5 (antibody, V domains shown)
VH: EVHLQQSGPELVKPGSSVKISCKASGYSFTGYYIHWVKQNHLKSLTWVGRINPHNGVADYDQILRGRAALTVDKSSTTAYLEFHSLTYEDSAVYFCVSGSNDFDYWGQGTPLTVS
VL: B1 VL with T20S, G30R, A31S, I43T, A51V, V53N, V92I
B3: 单克隆抗体4D6 (antibody, V domains shown)
VH: EVQLQQSGPELVKPGASVKISCKASGYSFTGYYMHWVKQSHEKSLEWVGRINPHNGVADYNQILKGKAALTVDKSSTTAYMEFHSLTSEDSAVYYCVSGSSDFDYWGQGTPLTVS
VL: B1 VL with T20S, G30R, A31S, I43T, A51V, V53N, V92I

Target: 柯萨奇A6型病毒(CVA6)病毒颗粒抗原, 毒株TW-2007-00141 (Coxsackievirus A6 (CVA6), strain TW-2007-00141)
Experiment: cell-based or functional assay

With B1 as the binder, how does the 中和效价 (最大稀释倍数 (可以抑制50%以上细胞孔病变)) read?
The 中和效价 (最大稀释倍数 (可以抑制50%以上细胞孔病变)) was 4096.

B2 was tested. Which 中和效价 (最大稀释倍数 (可以抑制50%以上细胞孔病变)) did it give?
The 中和效价 (最大稀释倍数 (可以抑制50%以上细胞孔病变)) was 4096.

With B3 as the binder, how does the 中和效价 (最大稀释倍数 (可以抑制50%以上细胞孔病变)) read?
The 中和效价 (最大稀释倍数 (可以抑制50%以上细胞孔病变)) was 8192.
